In paper PMC5682392, “Site-Directed Mutagenesis Study Revealed Three Important Residues in Hc-DAF-22, a Key Enzyme Regulating Diapause of Haemonchus contortus” (Frontiers in Microbiology, 2017):

B1: Hc-DAF-22 (Haemonchus contortus) (protein)
chain: MGKSKVYVIGVGMTKFCKPGSRDWDYPDMVKEAVNMALDDCSLKYTDIQQATVGYLFGGTCCGQRALYELGFTGIPIFNVNNACASGSSGLYLCKQIIESGNSDVVLACGFEKMATGSLDTQAGNSDGRALSVDNHIQVMSDTYGLFPAPITAQMFANAGKEHMEKYGTKREHFAKIAWKNHLHSVHNPNSQFTKEFSLDQVMNARKIYDFMGLLECSPTSDGSAAAVLCSERFLEQNPRLKPQAVEIVGLELGTDQPSVFKENSNIKMIGFDMIKKISSDLYRNTGLCPNDVQVIELHDCFAPNELITYEALGLCDVGKGGTIVDRGDNTYGGKWVINPSGGSISKGHPIGATGVAQVVELSNQLRGKCGKRQVPNCKIAMQHNIGIGGAGVVGLYRLAYPSSTCPPTTKSSPTMSAFKSDVIFEEIKQRINEEKELVKKIATSFRIIITGEDGTVKKWTIDAKSDTPYVGDDDRKVEVEITIKDSDFMNIAAGKLKADQAFMQGKMKLKGNIAKSMKLKTLLDPKMLKAKI

Columns and labels:
[1] = test system: CC(=O)CC(=O)SCCNC(=O)CCNC(=O)[C@H](O)C(C)(C)COP(=O)(O)OP(=O)(O)OC[C@H]1O[C@@H](n2cnc3c(N)ncnc32)[C@H](O)[C@@H]1OP(=O)(O)O; test: purified protein; type: biochemical, Haemonchus contortus; conditions: 60 μM CoA co-substrate, 20 mM MgCl2, 50 mM Tris-Cl pH 8.1 (pH 8.0 also stated), 37°C, varied substrate not given, taken as AcAc-CoA
purified protein = substrate: CC(=O)CC(=O)SCCNC(=O)CCNC(=O)[C@H](O)C(C)(C)COP(=O)(O)OP(=O)(O)OC[C@H]1O[C@@H](n2cnc3c(N)ncnc32)[C@H](O)[C@@H]1OP(=O)(O)O; test: purified protein; type: biochemical, Haemonchus contortus; conditions: 60 μM CoA co-substrate, 20 mM MgCl2, 50 mM Tris-Cl pH 8.1 (pH 8.0 also stated), 37°C, varied substrate not given, taken as AcAc-CoA, text prints 33.765

| Molecule | Km [1] [µM] | Vmax [1] [µM/min] | Km (purified protein) [µM] | Vmax (purified protein) [µM/min] |
| --- | --- | --- | --- | --- |
| Hc-DAF-22 (Haemonchus contortus; H349A) | 78.50 | 0.765 |  |  |
| Hc-DAF-22 (Haemonchus contortus; H299A) | 79.85 | 1.39 |  |  |
| Hc-DAF-22 (Haemonchus contortus; C84S) | 51.25 | 0.693 |  |  |
| B1 |  |  | 33.76 | 1.78 |
